Assay results: patent publication EP4813396A2 (Amphivena Therapeutics, Inc., dated 2026)

Columns and labels:
[1] = biological target: T1, human CD33 on cells (human, UniProt P20138 18-364); assay: cell-based or functional assay
[2] = biological target: T1, human CD33 on cells; assay: flow cytometry, HL-60 cells
[3] = biological target: T1, human CD33 on cells; assay: flow cytometry, titration on U-937 cells
[4] = biological target: T1, human CD33 on cells; assay: flow cytometry, titration on HL-60 cells
[5] = biological target: T1, human CD33 on cells; assay: flow cytometry, titration on KG-1 cells
[6] = biological target: cynomolgus CD33 on CHO cells (cynomolgus monkey); assay: flow cytometry; KD on CHO-cynomolgus CD33 cells divided by KD on CHO-human CD33 cells
[7] = biological target: T2, human CD3 on T cells (human, UniProt P07766 23-207); assay: flow cytometry, titration on human CD3+ T cells (Jurkat per paragraph 124/paragraph 125)
T2 construct: whole, on cells; also called hu CD3; CD3 on Jurkat cells

[8] = biological target: T2, human CD3 on T cells; assay: cell-based or functional assay
[9] = biological target: T2, human CD3 on T cells; assay: flow cytometry, human T-cells (as headed in Table 10)

T1 sequence (P20138 18-364): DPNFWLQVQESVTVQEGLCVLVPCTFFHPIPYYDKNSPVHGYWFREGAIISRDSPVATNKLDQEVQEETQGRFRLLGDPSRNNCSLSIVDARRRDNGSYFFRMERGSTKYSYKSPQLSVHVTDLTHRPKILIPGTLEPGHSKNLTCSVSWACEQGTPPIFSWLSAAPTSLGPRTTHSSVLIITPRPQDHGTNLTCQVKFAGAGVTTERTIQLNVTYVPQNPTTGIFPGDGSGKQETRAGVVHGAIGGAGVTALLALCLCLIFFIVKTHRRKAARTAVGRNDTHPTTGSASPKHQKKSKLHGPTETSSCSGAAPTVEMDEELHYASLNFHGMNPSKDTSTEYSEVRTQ
T2 sequence (P07766 23-207): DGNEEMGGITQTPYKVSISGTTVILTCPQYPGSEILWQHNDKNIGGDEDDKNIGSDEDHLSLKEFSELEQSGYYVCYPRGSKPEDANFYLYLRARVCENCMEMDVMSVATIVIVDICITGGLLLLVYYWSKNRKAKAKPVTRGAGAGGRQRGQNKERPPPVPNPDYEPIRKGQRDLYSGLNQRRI

Binder | EC50 on HL-60 [pM] (cytotoxicity) [1] | Kd [2] [nM] | Kd [3] [nM] | Kd [4] [nM] | Kd [5] [nM] | KD ratio cynoCD33/ huCD33 [6] | Kd [7] [nM] | CD25 Induction EC50 (pM) [8] [pM] | CD69 Induction EC50 (pM) [8] [pM] | T cell Proliferation in PBMC EC50 (pM) [8] [pM] | Kd [9] [nM]
CD33/CD3 tandem diabody 23 (bispecific antibody, Non-covalent homodimer; domain order 1; also called TandAb 23) DIQMTQSPSSLSASVGDRVTITCRSSTGAVTTSNYANWVQQKPGKAPKGLIGGTNKRAPGVPSRFSGSLIGTDFTLTISSLQPEDFATYYCALWYSNLWVFGQGTKVEIKGGSGGSQVQLVQSGAEVKKPGSSVKVSCKASGGTFSSYGISWVRQAPGQGLEWMGGIIPIFGSAHYAQKFQGRVTITADESTSTAYMELSSLRSEDTAVYYCAREYYYDSSEWAFDIWGQGTLVTVSSGGSGQSVLTQPPSASGTPGQRVTISCSGSSSNIGSNTVKWYQQLPGTAPKLLIYSNNQRSSGVPDRFSGSKSGSSASLAISGLQSEDEADYYCAAWDDSLNGYVFGGGTKLTVLGGSGGSEVQLVESGGGLVQPGGSLRLSCAASGFTFSTYAMNWVRQAPGKGLEWVGRIRSKYNNYATYYADSVKDRFTISRDDSKNSLYLQMNSLKTEDTAVYYCARHGNFGNSYVSWFAYWGQGTLVTVSS | 2.8 | 0.4 | 5.1 | 0.4 | 1 | 1.9 | 97.2 | 41 | 17 | 37 | 97.2
CD33/CD3 tandem diabody 17 (bispecific antibody, Non-covalent homodimer; domain order 1; also called TandAb 17) DIQMTQSPSSLSASVGDRVTITCRSSTGAVTTSNYANWVQQKPGKAPKALIGGTNKRAPGVPSRFSGSLIGDKATLTISSLQPEDFATYYCALWYSNLWVFGQGTKVEIKGGSGGSQVQLVQSGAEVKKPGESLKISCKGSGYSFTSYWIGWVRQMPGKGLEWMGIIYPGDSDTRYSPSFQGQVTISADKSISTAYLQWSSLKASDTAMYYCARHKRGSDAFDIWGQGTTVTVSSGGSGQSVLTQPPSVSGAPGQRVTISCTGSSSNIGAGYDVHWYQQLPGTAPKLLIYGNSNRPSGVPDRFSGSKSGTSASLAITGLQAEDEADYYCQSYDSSLSDVVFGGGTKLTVLGGSGGSEVQLVESGGGLVQPGGSLRLSCAASGFTFSTYAMNWVRQAPGKGLEWVGRIRSKYNNYATYYADSVKDRFTISRDDSKNSLYLQMNSLKTEDTAVYYCARHGNFGNSYVSYFAYWGQGTLVTVSSAAAGSHHHHHH | 18.4 | 5 | 24.4 | 5 | 52.5 | 1.9 | 3.3 | 30 | 114 | 30 | 3.3
CD33/CD3 tandem diabody 13 (bispecific antibody, Non-covalent homodimer; domain order 1; also called TandAb 13) DIQMTQSPSSLSASVGDRVTITCRSSTGAVTTSNYANWVQQKPGKAPKGLIGGTNKRAPGVPSRFSGSLIGTDFTLTISSLQPEDFATYYCALWYSNLWVFGQGTKVEIKGGSGGSQVQLVQSGAEVKKPGASVKVSCKASGYTFTSYDINWVRQAPGQGLEWMGWMNPNSGNTGFAQKFQGRVTMTRDTSTSTVYMELSSLRSEDTAVYYCARDRAVTDYYYGMDVWGQGTLVTVSSGGSGQSVLTQPPSASGTPGQRVTISCSGSRSNIGSNTVNWYQQLPGTAPKLLIYGNNQRPSGVPDRFSGSKSGTSASLAISGLQSEDEADYYCATWDDSLIGWVFGGGTKLTVLGGSGGSEVQLVESGGGLVQPGGSLRLSCAASGFTFSTYAMNWVRQAPGKGLEWVGRIRSKYNNYATYYADSVKDRFTISRDDSKNSLYLQMNSLKTEDTAVYYCARHGNFGNSYVSWFAYWGQGTLVTVSS | 1.1 | 0.2 | 0.5 | 0.2 | 0.3 | 1.6 | 55.7 | 30 | 22 | 23 | 55.7
CD33/CD3 tandem diabody 24 (bispecific antibody, Non-covalent homodimer; domain order 1; also called TandAb 24) DIQMTQSPSSLSASVGDRVTITCRSSTGAVTTSNYANWVQQKPGKAPKALIGGTNKRAPGVPSRFSGSLIGDKATLTISSLQPEDFATYYCALWYSNLWVFGQGTKVEIKGGSGGSQVQLVQSGAEVKKPGSSVKVSCKASGGTFDSYAISWVRQAPGQGLEWMGGIIPIFGSAHYSQKFQGRVTITADESTSTAYMELSSLRSEDTAVYYCAREYYYDSSEWAFDIWGQGTLVTVSSGGSGQSVLTQPPSASGTPGQRVTISCSGSSSNIGDNVVNWYQQLPGTAPKLLIYSTNKRPSGVPDRFSGSKSGSSASLAISGLQSEDEADYYCAAWDDSLSAYVFGGGTKLTVLGGSGGSEVQLVESGGGLVQPGGSLRLSCAASGFTFSTYAMNWVRQAPGKGLEWVGRIRSKYNNYATYYADSVKDRFTISRDDSKNSLYLQMNSLKTEDTAVYYCARHGNFGNSYVSYFAYWGQGTLVTVSSAAAGSHHHHHH | 9.6 | 5.6 | 39.5 | 5.6 | 12.4 | 1.8 | 2.3 |  | 57 | 264 | 2.3
CD33/CD3 tandem diabody 05 (bispecific antibody, Non-covalent homodimer; domain order 1; also called TandAb 05; tandem diabody 5) DIQMTQSPSSLSASVGDRVTITCRSSTGAVTTSNYANWVQQKPGKAPKGLIGGTNKRAPGVPARFSGSGSGTDFTLTISSLQPEDFATYYCALWYSNLWVFGQGTKVEIKGGSGGSQVQLVQSGAEVKKPGASVKVSCKASGYTFTSYDINWVRQAPGQGLEWMGWMNPNSGNTGFAQKFQGRVTMTRDTSTSTVYMELSSLRSEDTAVYYCARDRANTDYSFGMDVWGQGTLVTVSSGGSGGQSVLTQPPSASGTPGQRVTISCSGSRSNIGSNTVNWYQQLPGTAPKLLIYGNNQRPSGVPDRFSGSKSGTSASLAISGLQSEDEADYYCATWDDSLIGWVFGGGTKLTVLGGSGGSEVQLVESGGGLVQPGGSLRLSCAASGFTFSTYAMNWVRQAPGKGLEWVGRIRSKYNNYATYYADSVKDRFTISRDDSKNSLYLQMNSLKTEDTAVYYCARHGNFGNSYVSWFAYWGQGTLVTVSSAAAGSHHHHHH | 2.7 | 1 | 6.2 | 1 | 1.2 | 0.8 | 69.5 | 116 | 74 | 74 | 69.5
CD33/CD3 tandem diabody 06 (bispecific antibody, Non-covalent homodimer; domain order 1; also called TandAb 06; tandem diabody 6) DIQMTQSPSSLSASVGDRVTITCRSSTGAVTTSNYANWVQQKPGKAPKGLIGGTNKRAPGVPARFSGSGSGTDFTLTISSLQPEDFATYYCALWYSNLWVFGQGTKVEIKGGSGGSQVQLVQSGAEVKKPGASVKVSCKASGYTFTSYDINWVRQAPGQGLEWMGWMNPNSGNTGFAQKFQGRVTMTRDTSTSTVYMELSSLRSEDTAVYYCARDRANTDYSLGMDVWGQGTLVTVSSGGSGGQSVLTQPPSASGTPGQRVTISCSGSRSNIGSNTVNWYQQLPGTAPKLLIYGNNQRPSGVPDRFSGSKSGTSASLAISGLQSEDEADYYCATWDDSLIGWVFGGGTKLTVLGGSGGSEVQLVESGGGLVQPGGSLRLSCAASGFTFSTYAMNWVRQAPGKGLEWVGRIRSKYNNYATYYADSVKDRFTISRDDSKNSLYLQMNSLKTEDTAVYYCARHGNFGNSYVSWFAYWGQGTLVTVSSAAAGSHHHHHH | 1.6 | 0.4 | 1.6 | 0.4 | 0.5 | 0.8 | 86.3 | 39 | 21 | 48 | 86.3
CD33/CD3 tandem diabody 07 (bispecific antibody, Non-covalent homodimer; domain order 1; also called TandAb 07; tandem diabody 7) DIQMTQSPSSLSASVGDRVTITCRSSTGAVTTSNYANWVQQKPGKAPKALIGGTNKRAPGVPSRFSGSLIGDKATLTISSLQPEDFATYYCALWYSNLWVFGQGTKVEIKGGSGGSQVQLQESGGGVVQPGRSLRLSCAASGFSFSNYGIHWVRQAPGKGLEWVALISYDGNKKFYADSVKGRFAISRDTSKNTVDLQMTSLRPEDTAVYYCAKDRLESAAFDYWGQGTLVTVSSGGSGGSSYELTQPPSVSVAPGQTAMITCGGNNIGSTTVHWYQQKPGQAPVLVVYDDNERPSGIPERFSGSNSGSTATLTINRVEAGDEADYYCQVWDSGSDHVVFGGGTKLTVLGGSGGSEVQLVESGGGLVQPGGSLRLSCAASGFTFSTYAMNWVRQAPGKGLEWVGRIRSKYNNYATYYADSVKDRFTISRDDSKNSLYLQMNSLKTEDTAVYYCARHGNFGNSYVSYFAYWGQGTLVTVSSAAAGSHHHHHH | 17.8 | 13.7 | 47.1 | 13.7 | 47.9 | 45.8 | 49.7 | 134 | 65 | 50 | 49.7
